Laboratory results: patent US20220288160A1 (SYNKLINO A S, published 2022)

Assays:
US28 = target: T1, US28 (human cytomegalovirus, UniProt P69332 1-354); assay: cell-based or functional assay
T1 sequence: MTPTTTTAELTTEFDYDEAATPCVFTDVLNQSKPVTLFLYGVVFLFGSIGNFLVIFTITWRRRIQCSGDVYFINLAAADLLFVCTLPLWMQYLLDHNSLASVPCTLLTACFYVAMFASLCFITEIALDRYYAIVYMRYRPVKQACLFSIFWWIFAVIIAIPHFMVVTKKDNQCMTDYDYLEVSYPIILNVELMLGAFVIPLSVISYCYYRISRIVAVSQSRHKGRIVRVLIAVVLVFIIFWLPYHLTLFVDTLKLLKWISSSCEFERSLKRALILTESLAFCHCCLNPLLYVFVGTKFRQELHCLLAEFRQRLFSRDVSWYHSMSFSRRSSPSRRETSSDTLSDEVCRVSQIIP

CX3CR1 = target: T2, CX3CR1 (human, UniProt P49238 1-355); assay: cell-based or functional assay
T2 sequence: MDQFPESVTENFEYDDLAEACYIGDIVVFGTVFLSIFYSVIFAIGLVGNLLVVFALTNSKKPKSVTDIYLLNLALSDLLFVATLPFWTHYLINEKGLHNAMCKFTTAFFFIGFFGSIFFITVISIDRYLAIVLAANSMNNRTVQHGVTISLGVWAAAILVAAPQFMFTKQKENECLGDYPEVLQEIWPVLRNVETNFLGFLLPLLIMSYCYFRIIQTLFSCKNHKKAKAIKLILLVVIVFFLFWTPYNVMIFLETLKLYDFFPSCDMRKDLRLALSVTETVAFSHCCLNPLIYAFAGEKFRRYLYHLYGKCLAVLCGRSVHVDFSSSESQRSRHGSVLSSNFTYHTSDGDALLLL

B1: SYN001 (other)
chain: MQHHGVTKCNITCSKMTSKIPVALLIHYQQNQASCGKRAIILETRQHRLACADPKEQWVKDAMQHLDRQAAALTRNRQPRGWEQLEQSGYPVQRLVALYLAARLSWNQVDQVIRNALASPGSGGDLGEAIREQPEQARLALTLAAAESERFVRQGTGNDEAGAASGPADSGDALLERNYPTGAEFLGDGGDISFSTRGTQNWTVERLLQAHRQLEERGYVFVGYHGTFLEAAQSIVFGGVRARSQDLDAIWRGFYIAGDPALAYGYAQDQEPDARGRIRNGALLRVYVPRSSLPGFYRTGLTLAAPEAAGEVERLIGHPLPLRLDAITGPEEEGGRLETILGWPLAERTVVIPSAIPTDPRNVGGDLDPSSIPDKEQAISALPDYASQPGKPPKDE
Log IC50 (cell killing) (US28): -10.7 | Log IC50 (cell killing) (CX3CR1): -7.82
